The text below walks through data of the supplement of paper PMC10126150.

± gives the standard deviation of the averaged measurements.

The subject of this data set is ATP. As to the kind of experiment: switch fluorescence ratio, 500 uM ATP over buffer (Cy3 cluster intensity, sum of 5 cycles each) (fold (ratio)); higher = stronger signal-on switching upon ATP binding; sequences stand for … in TCGTCGGCAGCGTCAGATGTGTATAAGAGACAGTTTTTTTTTTTTTTTTTTTTTTTTT…TC. The note with it: aptamer strand: ATP DNA aptamer (quencher-CACCTGGGGGAGTATTGCGGAGGAAGG + anchor), 100 nM annealed; ATP concentration: 500 uM. The method, boiled down: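 Five buffer/ATP imaging cycles were run on Cy3-labelled switching-strand clusters on a modified Illumina MiSeq flow-cell, with NaOH stripping and re-annealing between cycles. In each cycle, clusters annealed to 100 nM quencher-labelled ATP aptamer were imaged in selection buffer, then after 15 min with 500 uM ATP at 22 °C. Per cluster, the fluorescence ratio is summed target-cycle over summed buffer-cycle Cy3 intensity, averaged per switch-domain sequence. Only clusters within 100-1000 RFU were kept.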
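Further: ATP exposure 15 min at 22 °C before imaging.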

With TTGGAGGTTT, the switch fluorescence ratio was 1.17 ± 0.24.
Consider AGTCAGTGAC, for which the switch fluorescence ratio stood at 1.009 ± 0.0026.
Consider TGGGAGGTCG, for which the switch fluorescence ratio is 1.09 ± 0.03.
The result for TGTTATGTCC reads 1 ± 0.023; that for GGGGGGTGTA, 1 ± 0.055.
Take GGATGTATAA: the switch fluorescence ratio is 1.01 ± 0.028.
Then TTTTGTGAAA, with 0.997 ± 0.036; and CCTTTCGTGT, with 1.19 ± 0.22.
The result for TGATTTTCGT reads 1 ± 0.044; that for AACTGGCTGC, 0.993 ± 0.061; that for ATTAGTTGGA, 0.99 ± 0.024.
GGGGTAATCC: the switch fluorescence ratio was 1.07 ± 0.14.
The result for CGGGGTTCGA reads 1 ± 0.011; that for TACGTGTAGA, 1.02 ± 0.056; that for TAGCTGATGT, 1.03 ± 0.02.
For the sequence TTCACGGACC, the switch fluorescence ratio was determined as 1.455 ± 0.013.
As to CAGAATGGGG, the switch fluorescence ratio came out at 0.998 ± 0.014.
Then ATAAGGATCT, with 1.03 ± 0.016; and GAAAGTTAGG, with 1.1 ± 0.14; and TATTGACCGT, with 1.04 ± 0.029.
Then CAGGGGGTGT, with 1.03 ± 0.032; and TGTTTCATTT, with 0.989 ± 0.016.
Then GAAGTGCTTT, with 0.995 ± 0.041.
Turning to CTGAGGTAAT, the switch fluorescence ratio worked out at 1.94 ± 0.21.
The result for CGTCACCGGG reads 1.11 ± 0.032; that for TTTTGAGTT, 0.986 ± 0.076.
On to GGCAGAATGA, for which the switch fluorescence ratio worked out at 1 ± 0.018.
Regarding GAAGGAACGT, the switch fluorescence ratio turned out to be 0.981 ± 0.043.
The result for TTTCGAGGAT reads 1.006 ± 0.0044.
Then CTTTTTATTT, with 1.14 ± 0.22.
Then AAATTATTTT, with 0.999 ± 0.014.
Regarding CTCATGAAAC, the switch fluorescence ratio came out at 1.01 ± 0.046.
The result for GCTTGATACG reads 1.06 ± 0.099; that for TTTGTACCCT, 1.064 ± 0.0021; that for CTGACTCCTT, 1.517 ± 0.015.
The result for ATCTTCCAGG reads 1.614 ± 0.0089.
Then TTTATCACCT, with 1.14 ± 0.021; and CGGATATGCG, with 1.06 ± 0.085.
On to GGCGATGCGC, for which the switch fluorescence ratio came to 1.03 ± 0.018.
Consider GGACGATCGG, for which the switch fluorescence ratio was determined as 0.9765 ± 0.0046.
Then GTCCGAAAGA, with 1.18 ± 0.095; and CCGGCTTGCT, with 1.03 ± 0.036; and GCAGGCTACA, with 1.02 ± 0.019.
Take TTTTACTTTA: the switch fluorescence ratio is 1.06 ± 0.032.
Then TTTCGACCTG, with 0.9871 ± 0.0046; and AAGAGTCGGG, with 0.972 ± 0.051.
Regarding TTCCAGATTC, the switch fluorescence ratio is 0.964 ± 0.013.
In the case of TTTACGGTCA, the switch fluorescence ratio amounted to 1.04 ± 0.039.
TGGTGTGTAC: the switch fluorescence ratio came out at 1.06 ± 0.076.
For the sequence TGAGTTGGAG, the switch fluorescence ratio amounted to 0.9878 ± 0.002.
For CGGAGACTTG, the switch fluorescence ratio was 0.973 ± 0.068.
Take GATGCCTGGA: the switch fluorescence ratio turned out to be 1.02 ± 0.086.
The result for AGGTTGAACG reads 0.985 ± 0.046; that for CCTAGGAGCC, 1.05 ± 0.026.
The result for TAAGATGGCT reads 1.11 ± 0.092; that for GGGTATGCAA, 1.001 ± 0.0093.
As to AAGGGTGGGT, the switch fluorescence ratio worked out at 0.9876 ± 0.0045.
Then ACTTGGCACA, with 1.08 ± 0.054.
Then TTGCACTACT, with 1.5 ± 0.025.
Regarding GCAGCATGTG, the switch fluorescence ratio stood at 1.04 ± 0.026.
Then CCATCGTATG, with 0.971 ± 0.015; and CGTTCTATTG, with 1.02 ± 0.086.
Take TTTTCCGTAT: the switch fluorescence ratio was 1.18 ± 0.025.
Then ACGTTTGGGG, with 0.968 ± 0.049.
For the sequence GACCGATGTG, the switch fluorescence ratio is 1.01 ± 0.013.
Then TACTTTATTA, with 1.019 ± 0.0035; and TGTTGCAATA, with 1.24 ± 0.4.
Then CCATATAGGC, with 1.03 ± 0.065.
For CATTTGAGGT, the switch fluorescence ratio came out at 1 ± 0.027.
The result for TGTTCATATA reads 1.01 ± 0.021; that for TGGGGGCTAC, 1 ± 0.01; that for GTTATAGTCG, 0.999 ± 0.05.
For GGGGTGAGGG, the switch fluorescence ratio came out at 0.971 ± 0.032.
The result for TGCTGTGTAC reads 1.084 ± 0.0095; that for TGCGGGGGGG, 1.03 ± 0.038; that for TACTTAGGTT, 0.98 ± 0.024.
The result for TCGGTAGCAG reads 1.092 ± 0.01; that for TGGCCCGGGG, 0.988 ± 0.031; that for ATTGTTACTT, 1.02 ± 0.019.
The result for TTCGTTCCGT reads 1.03 ± 0.019; that for TTGGGGCCAA, 1.01 ± 0.051.
For the sequence GTCGACAGGT, the switch fluorescence ratio was 0.987 ± 0.031.
Then CTGGTCATGT, with 0.995 ± 0.05; and AGATCGTGAG, with 0.97 ± 0.038.
For GATTGGTGAG, the switch fluorescence ratio was 1.001 ± 0.0046.
As to TAGGGCGACT, the switch fluorescence ratio was determined as 1.04 ± 0.049.
Then GAACAACATG, with 1.03 ± 0.051.
Then CATTCATGCT, with 0.971 ± 0.033; and AGGTGCGGGA, with 1.02 ± 0.052; and TTGGATTTTG, with 0.978 ± 0.043.
The result for TATCGGAAGG reads 0.9901 ± 0.0013; that for AATTAACGGC, 1.07 ± 0.083.
As to CCATACTTAT, the switch fluorescence ratio stood at 1.042 ± 0.0059.
Then GGGTTTTTGG, with 0.997 ± 0.032; and CGTTCGTGTG, with 1.017 ± 0.0044; and AGGTGAGATT, with 1.02 ± 0.018.
Then CAGGGAGGGG, with 0.995 ± 0.032.
The result for GGATTGCGG reads 1.008 ± 0.01; that for TGGTTGGAAG, 0.987 ± 0.016; that for CTTTTTATGA, 1.01 ± 0.027.
With AACGATCGCT, the switch fluorescence ratio was determined as 1.04 ± 0.0082.
The result for CATGTGTGGT reads 1.004 ± 0.0078; that for GCAAATGGGG, 1.02 ± 0.033; that for ATACAGGTCT, 1.03 ± 0.011.
The result for GATGATGGGG reads 0.998 ± 0.044; that for AAGGTGCAAG, 1.03 ± 0.053; that for CTGGGGTGGC, 1.03 ± 0.046.
Turning to GCTGCATGTA, the switch fluorescence ratio came to 1.02 ± 0.028.
Then TATGGATCTA, with 0.986 ± 0.048.
Turning to ATGTTTGGGT, the switch fluorescence ratio was determined as 1.01 ± 0.019.
With TTATAAGTAG, the switch fluorescence ratio is 1.01 ± 0.02.
The result for GGATATAAAT reads 0.972 ± 0.0099; that for TGGAGCGGTT, 1.03 ± 0.032; that for CGTTTCTGGG, 1.007 ± 0.0015.
The result for AATGTTGGTG reads 0.998 ± 0.018.
As to TGGGAGCGGT, the switch fluorescence ratio stood at 0.995 ± 0.007.
The result for GTTTGAGGTG reads 1 ± 0.044; that for CAAGTGGGGG, 1.02 ± 0.038.
As to GGTGGGGGGG, the switch fluorescence ratio was found to be 1 ± 0.036.
Then AATATTGATG, with 1.02 ± 0.044.
